The values below come from patent EP4714974A1 (Shanghai Qilu Pharmaceutical Research and Development …, dated 2026).

Assay [1] deals with T1, human GPRC5D (human, UniProt Q9NZD1 1-345).
T1 construct: whole, on cells; also called hGPRC5D; G-protein coupled receptor family C group 5 member D
Description: flow cytometry on NCI-H929 cells. Background: In flow cytometry, cells or beads pass a laser one at a time.

For assay [2], the target named is T1, human GPRC5D. Description: flow cytometry on human GPRC5D-CHOK1 cells.
The target of assay [3] is T1, human GPRC5D. Description: cell-based or functional assay.
In assay [4] the target is T1, human GPRC5D. Description: flow cytometry (FACS) on NCI-H929 cells expressing hGPRC5D.
The target in assay [5] is T2, human CD3 on Jurkat cells (human, UniProt P07766 23-207).
T2 construct: whole, on cells; CD3 complex on cells; also called hCD3; Jurkat cell strain
Description: flow cytometry (FACS) on Jurkat cells expressing hCD3.

Assay [6] has as its target T3, cynomolgus monkey CD3 (purchased from Acro, Cat. No. CDD-C52W4) (cynomolgus monkey, UniProt Q95LI5 22-117).
T3 construct: Bought reagent
T3 sequence (looked up): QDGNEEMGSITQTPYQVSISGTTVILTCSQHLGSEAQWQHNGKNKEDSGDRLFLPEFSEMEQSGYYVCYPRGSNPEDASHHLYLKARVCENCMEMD
Description: SPR (Biacore 8K), CD3 immobilised on CM5 chip, bispecific antibody as analyte, 1:1 Langmuir fit.

Assay [7] deals with T4, human CD3 (purchased from Acro, Cat. No. CDD-H52W1) (human, UniProt P07766 23-126).
T4 construct: Bought reagent; also called human CD3 protein
Described as above.

For assay [8], the target named is T1, human GPRC5D. Description: flow cytometry (FACS) on RPMI8226 cells expressing hGPRC5D.
For the next assay, the target named is T5, cynomolgus monkey GPRC5D (cynomolgus monkey).
T5 chain: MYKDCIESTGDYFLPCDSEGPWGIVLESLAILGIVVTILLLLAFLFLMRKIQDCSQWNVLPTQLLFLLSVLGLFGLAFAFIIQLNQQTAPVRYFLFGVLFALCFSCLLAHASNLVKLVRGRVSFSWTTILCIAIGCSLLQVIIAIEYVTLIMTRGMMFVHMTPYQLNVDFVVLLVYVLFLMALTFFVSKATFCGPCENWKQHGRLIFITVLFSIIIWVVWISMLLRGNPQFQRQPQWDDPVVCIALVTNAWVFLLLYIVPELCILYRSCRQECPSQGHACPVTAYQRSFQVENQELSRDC
Description: flow cytometry on cynomolgus monkey GPRC5D-CHOK1 cells.

Assay [9] deals with T1, human GPRC5D. Description: flow cytometry on human GPRC5D-CHOK1 cells. This is another data set of the same source.
A further assay has as its target T6, human GPRC5A (human, UniProt Q8NFJ5 1-357).
T6 construct: whole, on cells; also called human GPRC5A-CHOK1 cell line
Description: flow cytometry on human GPRC5A-CHOK1 cells.

T1 sequence (Q9NZD1 whole entry): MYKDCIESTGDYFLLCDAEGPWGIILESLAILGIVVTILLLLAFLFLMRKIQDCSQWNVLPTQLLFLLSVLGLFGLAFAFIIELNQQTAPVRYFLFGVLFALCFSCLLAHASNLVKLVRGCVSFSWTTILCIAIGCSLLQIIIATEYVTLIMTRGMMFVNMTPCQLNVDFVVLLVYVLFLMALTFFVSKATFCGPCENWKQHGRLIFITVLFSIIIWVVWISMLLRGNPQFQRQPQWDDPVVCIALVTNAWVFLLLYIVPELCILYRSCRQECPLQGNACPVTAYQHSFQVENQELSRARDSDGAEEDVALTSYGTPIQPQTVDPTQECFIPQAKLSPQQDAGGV
T4 sequence (P07766 23-126): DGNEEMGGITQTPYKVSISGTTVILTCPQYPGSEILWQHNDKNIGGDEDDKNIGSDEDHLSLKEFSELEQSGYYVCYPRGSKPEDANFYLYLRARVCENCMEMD
T2 sequence (P07766 23-207): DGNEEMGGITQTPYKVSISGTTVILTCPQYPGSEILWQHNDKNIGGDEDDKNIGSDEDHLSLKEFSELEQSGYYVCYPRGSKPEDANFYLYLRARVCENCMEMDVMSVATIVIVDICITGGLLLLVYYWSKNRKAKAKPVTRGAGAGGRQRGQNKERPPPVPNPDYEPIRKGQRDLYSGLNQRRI
T6 sequence (Q8NFJ5 whole entry): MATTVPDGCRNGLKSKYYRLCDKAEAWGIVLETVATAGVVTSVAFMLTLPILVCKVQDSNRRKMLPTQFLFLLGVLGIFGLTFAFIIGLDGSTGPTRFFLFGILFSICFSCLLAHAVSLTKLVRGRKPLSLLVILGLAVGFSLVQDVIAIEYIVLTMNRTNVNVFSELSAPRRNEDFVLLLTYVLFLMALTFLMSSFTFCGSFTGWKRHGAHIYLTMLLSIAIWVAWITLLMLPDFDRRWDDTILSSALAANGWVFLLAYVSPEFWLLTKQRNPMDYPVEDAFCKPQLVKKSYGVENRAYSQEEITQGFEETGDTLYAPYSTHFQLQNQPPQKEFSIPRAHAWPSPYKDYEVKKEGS

B1: 18CH16H2L1 (humanized mouse hybridoma-derived anti-GPRC5D antibody) (antibody, V domains shown)
VH: QVQLVQSGAEVKKPGASVKVSCKASGYTFTSYIIHWVRQAPGQGLEWIGYINPYNDGTKYNEKFKGRVTMTSDTSTSTVYMELSSLRSEDTAVYYCARGGIRAFMNYWGQGTLVTVSS
VL: DIQMTQSPSSLSASVGDRVTITCKASQDVGTAVAWYQQKPGKAPKLLIYWASTRHTGVPSRFSGSGSGTDFTLTISSLQPEDFATYYCQHYISWTFGQGTKVEIK
notes: also called humanized clone 18CH16 antibody
In general, EC50 refers to the concentration giving half of the maximal effect. Regarding B1, the concentration for a half-maximal effect (EC50) with human GPRC5D [1] came to 0.3 nM; with human GPRC5D [2] it was 0.51 nM.

B2: Bispecific antibody 1 (bispecific antibody, human IgG1, kappa, L234A L235A)
heavy 1: not shown
heavy 2: QVQLVQSGAEVKKPGASVKVSCKASGYTFTSYIIHWVRQAPGQGLEWIGYINPYNDGTKYNEKFKGRVTMTSDTSTSTVYMELSSLRSEDTAVYYCARGGIRAFMNYWGQGTLVTVSSASTKGPSVFPLAPSSKSTSGGTAALGCLVKDYFPEPVTVSWNSGALTSGVHTFPAVLQSSGLYSLSSVVTVPSSSLGTQTYICNVNHKPSNTKVDKKVEPKSCDKTHTCPPCPAPEAAGGPSVFLFPPKPKDTLMISRTPEVTCVVVDVSHEDPEVKFNWYVDGVEVHNAKTKPREEQYNSTYRVVSVLTVLHQDWLNGKEYKCKVSNKALPAPIEKTISKAKGQPREPQVCTLPPSRDELTKNQVSLSCAVKGFYPSDIAVEWESNGQPENNYKTTPPVLDSDGSFFLVSKLTVDKSRWQQGNVFSCSVMHEALHNRYTQKSLSLSPGK
light: DIQMTQSPSSLSASVGDRVTITCKASQDVGTAVAWYQQKPGKAPKLLIYWASTRHTGVPSRFSGSGSGTDFTLTISSLQPEDFATYYCQHYISWTFGQGTKVEIKRTVAAPSVFIFPPSDEQLKSGTASVVCLLNNFYPREAKVQWKVDNALQSGNSQESVTEQDSKDSTYSLSSTLTLSKADYEKHKVYACEVTHQGLSSPVTKSFNRGEC
notes: 2+1 format: two GPRC5D Fabs and one CD3 scFv placed between a Fab and the Fc; also called anti-CD3-GPRC5D bispecific antibody 1; anti-GPRC5D/CD3 bispecific antibody
For orientation: Kd means the concentration at which binding is half-saturated. In general, koff refers to a measure of how fast the partners let go of each other. As a reminder, the kon is the second-order rate constant of association. Regarding B2, in the assay with human GPRC5D [3], the “TDCC EC50(nM), NCI-H929 cell strain” value came to 0.001 nM and the “TDCC EC50(nM), RPMI8226 cell strain” value came to 0.01 nM. The molecule further returned an EC50 with human GPRC5D [4] of 1.07 nM. In [5], this molecule displayed an EC50 of 22.1 nM. Moreover, in assay [6], binding was characterised by a dissociation constant (Kd) of 16.8 nM, the koff turned out to be 0.00292 s⁻¹ and the kon was 174000 M⁻¹ s⁻¹. Also, in assay [7], the Kd came out at 20 nM, the koff came out at 0.00226 s⁻¹ and the kon came out at 113000 M⁻¹ s⁻¹. In addition, it took 7.48 nM to reach a half-maximal effect with human GPRC5D [8] (EC50).

B3: Bispecific antibody 2 (bispecific antibody)
heavy: not shown
light: DIQMTQSPSSLSASVGDRVTITCKASQDVGTAVAWYQQKPGKAPKLLIYWASTRHTGVPSRFSGSGSGTDFTLTISSLQPEDFATYYCQHYISWTFGQGTKVEIKRTVAAPSVFIFPPSDEQLKSGTASVVCLLNNFYPREAKVQWKVDNALQSGNSQESVTEQDSKDSTYSLSSTLTLSKADYEKHKVYACEVTHQGLSSPVTKSFNRGEC
chain: DKTHTCPPCPAPEAAGGPSVFLFPPKPKDTLMISRTPEVTCVVVDVSHEDPEVKFNWYVDGVEVHNAKTKPREEQYNSTYRVVSVLTVLHQDWLNGKEYKCKVSNKALPAPIEKTISKAKGQPREPQVCTLPPSRDELTKNQVSLSCAVKGFYPSDIAVEWESNGQPENNYKTTPPVLDSDGSFFLVSKLTVDKSRWQQGNVFSCSVMHEALHNRYTQKSLSLSPGK
notes: 1+1 format: one GPRC5D Fab, one CD3 scFv between Fab and Fc, Fc-only hole chain; also called anti-CD3-GPRC5D bispecific antibody 2; anti-GPRC5D/CD3 bispecific antibody
Consider B3, for which, in the assay with human GPRC5D [3], the “TDCC EC50(nM), NCI-H929 cell strain” value came to 0.017 nM and the “TDCC EC50(nM), RPMI8226 cell strain” value came to 0.08 nM. Also, it took 5.19 nM to reach a half-maximal effect in the assay with human GPRC5D [4] (EC50). Moreover, in assay [5], the EC50 was determined as 12.9 nM. In [6], this molecule gave a Kd of 18.9 nM, an off-rate constant (koff) of 0.00279 s⁻¹ and a kon of 147000 M⁻¹ s⁻¹. For the same molecule, in assay [7], the affinity, expressed as Kd, was 18.1 nM; the koff worked out at 0.00214 s⁻¹; the kon was 118000 M⁻¹ s⁻¹. The molecule further displayed an EC50 with human GPRC5D [8] of 22.9 nM.

B4: 18CH-16 (chimeric mouse hybridoma-derived anti-GPRC5D antibody) (antibody, V domains shown)
VH: EVQLQQSGPELVKPGASVKMSCKASGYTFTSYIIHWVKQKPGQGLEWIGYINPYNDGTKYNEKFKGKATLTSDRSSSTAYMEVSSLTSEDSAVYYCARGGIRAFMNYWGQGTSVTVSS
VL: DIVMTQSHKFMSTSVGDRVSITCKASQDVGTAVAWYQQKPGQSPKLLIYWASTRHTGVPDRFTGSGSGTDFTLSISNVQSEDLADYFCQHYISWTFGGGTNLEIK
notes: also called parent antibody
In the case of B4, the results for the EC50 with cynomolgus monkey GPRC5D and with human GPRC5D [9] were 4.39 nM and 3.89 nM, respectively. In the assay with human GPRC5A, the binding result is “no binding (tested: 100 nM (initial concentration))”.
